Assay results: PMC7708047, “VEZF1–guanine quadruplex DNA interaction regulates alternative polyadenylation and detyrosinase activity of VASH1”

T1: VEZF1-3xFlag (Homo sapiens, UniProt Q14119 1-521)
T1 sequence: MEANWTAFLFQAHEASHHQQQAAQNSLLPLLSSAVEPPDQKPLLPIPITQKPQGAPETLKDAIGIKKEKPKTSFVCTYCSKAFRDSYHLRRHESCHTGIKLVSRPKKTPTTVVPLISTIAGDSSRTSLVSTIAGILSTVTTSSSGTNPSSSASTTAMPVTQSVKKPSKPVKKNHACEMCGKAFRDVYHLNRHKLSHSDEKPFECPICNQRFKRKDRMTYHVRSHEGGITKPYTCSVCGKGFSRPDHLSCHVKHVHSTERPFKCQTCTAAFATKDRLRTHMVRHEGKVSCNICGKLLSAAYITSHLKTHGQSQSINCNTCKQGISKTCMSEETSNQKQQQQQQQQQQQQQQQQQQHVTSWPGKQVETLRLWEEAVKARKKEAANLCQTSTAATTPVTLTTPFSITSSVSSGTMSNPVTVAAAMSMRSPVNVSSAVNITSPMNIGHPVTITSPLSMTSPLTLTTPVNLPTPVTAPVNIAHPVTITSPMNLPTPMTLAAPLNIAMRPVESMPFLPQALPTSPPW

B1: R1M4-2 (ssDNA)
DNA: TCGTGAGTGTGGAGTGAGGTGCTGTGCCTGAGCTGAGAGCAGCTTAGTTTGCA

Target: T1, VEZF1-3xFlag
Experiment: EMSA; 100 mM K+, 10 uM Zn2+; EMSA: 25 nM DNA, 10 mM Tris-HCl pH 7.5, 100 mM KCl, 10 uM ZnCl2, 1 mM DTT, 3% glycerol, on ice 30 min; 6% PAGE in TBE pH 8.3, 4 C
Settings: protein: recombinant, tags: C-terminal 3xFlag, label: 5'-TAMRA

Binder	Kd (G4) [µM]	binding result (single strand)	other results
AAAGGGTTAGGGTTAGGGTTAGGGAA (structured_DNA) [hTEL G4]	0.78 ± 0.04	–	–
TGAGGGTGGGGAGGGTGGGGA (structured_DNA) [MYC G4]	2.06 ± 0.12	–	–
AAAGGGTTAGTGTTAGTGTTAGGGAA (ssDNA) [hTEL M4]	–	–	Kd (single strand): 1.64 ± 0.07 µM
TGAGGGTGAGGAGTGTGGGGA (ssDNA) [MYC M4]	–	no binding	–
GTGTGAGGTGGAAGTGAAAGAAGTGAAGAGCAGTGAGAGTGTGCC (ssDNA) [R1M4-1]	–	no binding	–
B1	–	no binding	–
